The values below come from patent publication US20220064276A1 (SCHOLAR ROCK, published 2022).

Experiment [1] has as its target LTBP-proTGFβ1: transfected human proTGFβ1 presented by endogenous LTBP1/3 of LN229 cells (human). Put plainly: cell-based or functional assay.
The target in experiment [2] is T1, mouse LTBP1-proTGFβ1 complex (mouse, UniProt Q8CG19 339-1712; P04202 30-390). Put plainly: cell-based or functional assay.
Target sequence in this assay (Q8CG19 339-1712 limits assumed, chain 1 of 2): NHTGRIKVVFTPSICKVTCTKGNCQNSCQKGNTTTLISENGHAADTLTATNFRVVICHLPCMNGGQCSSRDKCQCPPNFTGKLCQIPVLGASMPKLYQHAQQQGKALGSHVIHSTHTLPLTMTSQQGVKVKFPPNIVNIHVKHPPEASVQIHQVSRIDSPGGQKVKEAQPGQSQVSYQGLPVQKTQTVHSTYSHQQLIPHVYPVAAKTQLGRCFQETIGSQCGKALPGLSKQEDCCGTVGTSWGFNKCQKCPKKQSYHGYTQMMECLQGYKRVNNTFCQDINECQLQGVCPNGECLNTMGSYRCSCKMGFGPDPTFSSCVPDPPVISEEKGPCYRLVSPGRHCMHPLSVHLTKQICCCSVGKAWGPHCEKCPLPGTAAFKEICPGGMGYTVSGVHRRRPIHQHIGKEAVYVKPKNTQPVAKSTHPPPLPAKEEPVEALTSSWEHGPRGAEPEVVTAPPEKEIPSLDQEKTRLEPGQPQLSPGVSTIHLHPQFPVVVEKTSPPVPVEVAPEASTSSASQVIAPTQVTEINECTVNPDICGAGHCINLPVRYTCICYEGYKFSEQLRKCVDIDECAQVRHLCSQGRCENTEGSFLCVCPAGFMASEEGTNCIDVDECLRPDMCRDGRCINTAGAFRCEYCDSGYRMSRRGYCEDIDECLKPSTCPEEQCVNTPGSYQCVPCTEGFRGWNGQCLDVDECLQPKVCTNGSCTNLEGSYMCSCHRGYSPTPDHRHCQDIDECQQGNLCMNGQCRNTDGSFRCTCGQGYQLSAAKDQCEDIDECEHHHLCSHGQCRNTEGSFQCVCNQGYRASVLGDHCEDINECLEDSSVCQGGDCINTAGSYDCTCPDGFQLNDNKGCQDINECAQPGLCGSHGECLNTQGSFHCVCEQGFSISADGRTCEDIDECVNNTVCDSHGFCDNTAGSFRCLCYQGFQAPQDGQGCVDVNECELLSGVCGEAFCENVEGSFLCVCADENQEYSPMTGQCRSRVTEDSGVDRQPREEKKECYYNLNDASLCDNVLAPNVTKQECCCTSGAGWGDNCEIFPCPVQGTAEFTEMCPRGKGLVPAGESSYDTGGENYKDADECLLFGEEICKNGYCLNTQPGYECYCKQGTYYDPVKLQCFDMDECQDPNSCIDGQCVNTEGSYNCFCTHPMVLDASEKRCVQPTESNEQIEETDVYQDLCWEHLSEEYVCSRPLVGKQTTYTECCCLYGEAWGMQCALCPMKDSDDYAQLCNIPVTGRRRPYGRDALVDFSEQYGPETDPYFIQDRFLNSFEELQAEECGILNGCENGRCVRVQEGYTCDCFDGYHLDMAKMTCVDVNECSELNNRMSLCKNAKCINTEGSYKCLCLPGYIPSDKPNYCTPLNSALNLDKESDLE
Target sequence in this assay (P04202 30-390 limits assumed, chain 2 of 2): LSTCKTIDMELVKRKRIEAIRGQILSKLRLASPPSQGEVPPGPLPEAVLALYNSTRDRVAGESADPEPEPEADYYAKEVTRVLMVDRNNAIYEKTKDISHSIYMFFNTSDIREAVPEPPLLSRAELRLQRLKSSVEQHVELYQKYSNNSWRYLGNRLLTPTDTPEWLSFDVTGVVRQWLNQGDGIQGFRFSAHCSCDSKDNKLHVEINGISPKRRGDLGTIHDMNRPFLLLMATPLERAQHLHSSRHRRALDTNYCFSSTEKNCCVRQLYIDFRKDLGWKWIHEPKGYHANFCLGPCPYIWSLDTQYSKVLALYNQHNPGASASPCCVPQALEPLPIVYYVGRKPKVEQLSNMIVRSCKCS
Experiment [3] concerns the target T2, human LRRC33-proTGFβ1 complex (human, UniProt Q86YC3 19-650; P01137 30-390, limits assumed).
T2 construct: Exemplary entries; also called huLRRC33 proTGFb1; HuLRRC33-ProTGFb1
Put plainly: Octet, antibody immobilized.

Experiment [4] deals with T3, human LTBP1-proTGFβ1 complex (human, UniProt Q14766 347-1721; P01137 30-390).
T3 construct: Large latent complex: one presenting molecule disulfide-linked to a proTGFβ1 dimer; also called Hu LTBP1-proTGFβ1; huLTBP1 proTGFβ1
Put plainly: Octet BLI, IgG captured. Here is the method: (§1) LTBP complex-specific antibodies from the first round of affinity maturation/optimization (SR-AB14, SR-AB16, SR-AB17, SR-AB18, SR-AB19) were selected for a second round of affinity maturation/optimization (i.e., CDR-H3 mutagenesis as described herein) and particular progeny antibodies (SR-AB20, SR-AB21, SR-AB22, SR-AB23, SR-AB24, SR-AB25, SR-AB26, SR-AB27, SR-AB28, and SR-AB29) were assessed for their ability to bind various proTGFβ1 constructs. Binding affinities of the optimized antibodies were measured by Octet against human LTBP1-proTGFβ1, human LTBP3-proTGFbl, mouse LTBP1-proTGFβ1, mouse LTBP3-proTGFbl, and GARP-proTGFβ1 complexes, essentially as described in Example 6. […] The antigens were allowed to associate for 3 minutes followed by a 5-minute dissociation. Kinetics buffer (ForteBio®) was used throughout the experiment, and KD was determined using a 1:1 fitting model for each antibody antigen pair.

In experiment [5] the target is T4, human LTBP3-proTGFβ1 complex (human, UniProt Q9NS15 44-1303; P01137 30-390, limits assumed).
T4 construct: Exemplary entries; also called Hu LTBP3-proTGFβ1; huLTBP3 proTGFb1
Put plainly: Octet BLI, IgG captured. The protocol:
as §1

Experiment [6] addresses T1, mouse LTBP1-proTGFβ1 complex. Put plainly: Octet BLI, IgG captured. The protocol: as §1
Target sequence in this assay (Q8CG19 339-1712 limits assumed, chain 1 of 2): as the sequence (Q8CG19 339-1712 limits assumed, chain 1 of 2) above
Target sequence in this assay (P04202 30-390 limits assumed, chain 2 of 2): as the sequence (P04202 30-390 limits assumed, chain 2 of 2) above
In experiment [7] the target is T5, mouse LTBP3-proTGFβ1 complex (mouse, UniProt Q61810 41-1245; P04202 30-390, limits assumed).
T5 construct: Exemplary entries; also called Mo LTBP3-proTGFβ1; Murine LTBP3 proTGFb1
Put plainly: Octet BLI, IgG captured. Here is the method:
as §1

The target in experiment [8] is T6, human GARP-proTGFβ1 complex (human, UniProt Q14392 18-627; P01137 30-390, limits assumed).
T6 construct: Exemplary entries; also called Hu GARP-proTGFβ1; huGARP proTGFb1
Put plainly: Octet (bio-layer interferometry), response at 200 nM antigen; 0.1 nm cutoff designates meaningful binding. The protocol: This experiment was performed at 200, 100, 50, and 25 nM human GARP proTGFb1 and human LTBP1 proTGFbl. […] Surface plasmon resonance (SPR)-based assays

Another experiment has as its target T7, mature TGFβ1 (UniProt P01137 279-390).
T7 construct: mature
Put plainly: FIG. 2B binding assay.

The target of experiment [9] is T3, human LTBP1-proTGFβ1 complex. Put plainly: Octet binning; competitor (immobilized second antibody) SR-AB1. The protocol:
(§2) 500 nM of human LTBP1-proTGFb1 complex was pre-incubated with 1 μM of each test antibody. After an overnight incubation, the LTBP1-proTGFβ1+first antibody was tested for binding to a second antibody which was immobilized to an Anti-Human IgG Fc Capture (AHC) sensor tip at 67 nM. The sensor tip was blocked with a negative control antibody (HuNeg) before seeing the LTBP1-proTGFβ1+first antibody.
(§3) Normalized responses less than 70% or less than 0.7 of the uninhibited interaction were considered antibodies that cross block.

For experiment [10] the target is unchanged. Put plainly: Octet binning; competitor (immobilized second antibody) SR-AB2. The protocol: as §2, §3
Experiment [11] has the same target. Put plainly: Octet binning; competitor (immobilized second antibody) SR-AB10. The protocol: as §2, §3
Experiment [12] shares this target. Put plainly: Octet binning; competitor (immobilized second antibody) SR-AB13. The protocol:
as §2, §3

In a further experiment the target is T8, proTGFβ1 alone (Homo sapiens (Human), UniProt P01137 30-390).
T8 construct: proTGFβ1 not in complex with a presenting molecule
Put plainly: ELISA on immobilised antigen (Example 4), RLU, mean ± SD.

Another experiment addresses T9, LTBP1 alone (Homo sapiens (Human), UniProt Q14766 347-1721).
T9 construct: LTBP1 not in complex with TGFβ1
T9 sequence: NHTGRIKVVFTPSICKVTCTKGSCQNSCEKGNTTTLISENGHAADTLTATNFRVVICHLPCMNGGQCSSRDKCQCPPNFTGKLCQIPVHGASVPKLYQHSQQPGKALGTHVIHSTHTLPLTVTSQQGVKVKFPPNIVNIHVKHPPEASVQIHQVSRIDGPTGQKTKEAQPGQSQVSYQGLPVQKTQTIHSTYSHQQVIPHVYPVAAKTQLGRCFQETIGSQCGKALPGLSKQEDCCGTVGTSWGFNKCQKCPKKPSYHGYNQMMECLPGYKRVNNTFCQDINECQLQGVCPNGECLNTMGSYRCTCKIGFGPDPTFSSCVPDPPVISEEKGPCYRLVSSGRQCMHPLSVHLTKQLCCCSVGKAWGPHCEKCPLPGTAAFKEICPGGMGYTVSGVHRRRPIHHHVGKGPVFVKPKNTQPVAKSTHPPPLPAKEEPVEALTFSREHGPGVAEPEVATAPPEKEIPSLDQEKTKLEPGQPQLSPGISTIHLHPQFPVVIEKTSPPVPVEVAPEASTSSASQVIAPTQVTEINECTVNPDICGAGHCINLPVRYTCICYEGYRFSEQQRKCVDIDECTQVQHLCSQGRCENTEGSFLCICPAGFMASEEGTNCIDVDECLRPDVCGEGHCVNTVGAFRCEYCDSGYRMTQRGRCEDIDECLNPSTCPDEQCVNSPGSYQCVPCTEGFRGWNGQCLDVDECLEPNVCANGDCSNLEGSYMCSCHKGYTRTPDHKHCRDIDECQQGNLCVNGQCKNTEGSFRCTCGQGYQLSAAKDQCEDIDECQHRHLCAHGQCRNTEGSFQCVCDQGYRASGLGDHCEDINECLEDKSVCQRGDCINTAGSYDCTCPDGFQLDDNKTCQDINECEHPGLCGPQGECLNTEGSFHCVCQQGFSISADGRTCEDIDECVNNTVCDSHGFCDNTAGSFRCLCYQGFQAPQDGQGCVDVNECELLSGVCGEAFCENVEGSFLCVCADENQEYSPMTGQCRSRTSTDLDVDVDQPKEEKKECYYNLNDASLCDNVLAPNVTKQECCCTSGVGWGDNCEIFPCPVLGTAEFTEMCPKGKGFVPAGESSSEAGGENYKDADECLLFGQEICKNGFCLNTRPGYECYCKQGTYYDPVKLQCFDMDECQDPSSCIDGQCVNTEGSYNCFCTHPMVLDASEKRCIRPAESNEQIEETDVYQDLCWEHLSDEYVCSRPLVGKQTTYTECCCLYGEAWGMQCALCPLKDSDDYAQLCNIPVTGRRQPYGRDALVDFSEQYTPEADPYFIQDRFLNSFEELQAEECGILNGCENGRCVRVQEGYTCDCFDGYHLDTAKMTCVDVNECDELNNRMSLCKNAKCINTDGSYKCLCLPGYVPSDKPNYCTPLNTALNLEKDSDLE
The experiment is described as above.

The target in experiment [13] is T5, mouse LTBP3-proTGFβ1 complex. Put plainly: Octet (bio-layer interferometry), yeast expressed IgG1Agly antibody, antigen at a single 100 nM per Example 6.
For experiment [14], the target named is T6, human GARP-proTGFβ1 complex. The experiment is described as above.
A further experiment deals with T10, Rat LTBP1-proTGFβ1 (rat).
T10 construct: the sheet labels the whole complex 'Rat'; Named only on the sheet; The legend says only that SR-AB2 cross-reacts with rodent LTBP1-proTGFβ1
Put plainly: bio-layer interferometry sensorgrams (y axis nm), concentration series with kinetic table under the panel; concentrations not shown.

The target of experiment [15] is T3, human LTBP1-proTGFβ1 complex. The description is as above.
Experiment [16] deals with T1, mouse LTBP1-proTGFβ1 complex. Described as above.
Target sequence in this assay (P04202 30-390 limits assumed, one chain of several): as the sequence (P04202 30-390 limits assumed, chain 2 of 2) above
Experiment [17] deals with T3, human LTBP1-proTGFβ1 complex. Put plainly: Octet (bio-layer interferometry), yeast expressed IgG1Agly antibody, antigen at a single 100 nM per Example 6, 1:1 fit; value printed under the panel.
In experiment [18] the target is T1, mouse LTBP1-proTGFβ1 complex. The experiment is described as above.
Target sequence in this assay (P04202 30-390 limits assumed, one chain of several): as the sequence (P04202 30-390 limits assumed, chain 2 of 2) above

T3 sequence (P01137 30-390 limits assumed, one chain of several): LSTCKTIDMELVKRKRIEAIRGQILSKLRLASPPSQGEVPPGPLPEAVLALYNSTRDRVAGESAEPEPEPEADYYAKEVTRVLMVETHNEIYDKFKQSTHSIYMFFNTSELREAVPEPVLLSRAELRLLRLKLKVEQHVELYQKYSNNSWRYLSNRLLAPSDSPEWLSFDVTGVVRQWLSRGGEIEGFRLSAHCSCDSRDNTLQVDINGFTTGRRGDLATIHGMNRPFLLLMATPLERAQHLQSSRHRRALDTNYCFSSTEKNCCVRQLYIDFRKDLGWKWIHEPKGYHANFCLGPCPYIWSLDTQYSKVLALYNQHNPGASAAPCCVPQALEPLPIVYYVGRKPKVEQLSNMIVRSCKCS
T6 sequence (Q14392 18-627 limits assumed, chain 1 of 2): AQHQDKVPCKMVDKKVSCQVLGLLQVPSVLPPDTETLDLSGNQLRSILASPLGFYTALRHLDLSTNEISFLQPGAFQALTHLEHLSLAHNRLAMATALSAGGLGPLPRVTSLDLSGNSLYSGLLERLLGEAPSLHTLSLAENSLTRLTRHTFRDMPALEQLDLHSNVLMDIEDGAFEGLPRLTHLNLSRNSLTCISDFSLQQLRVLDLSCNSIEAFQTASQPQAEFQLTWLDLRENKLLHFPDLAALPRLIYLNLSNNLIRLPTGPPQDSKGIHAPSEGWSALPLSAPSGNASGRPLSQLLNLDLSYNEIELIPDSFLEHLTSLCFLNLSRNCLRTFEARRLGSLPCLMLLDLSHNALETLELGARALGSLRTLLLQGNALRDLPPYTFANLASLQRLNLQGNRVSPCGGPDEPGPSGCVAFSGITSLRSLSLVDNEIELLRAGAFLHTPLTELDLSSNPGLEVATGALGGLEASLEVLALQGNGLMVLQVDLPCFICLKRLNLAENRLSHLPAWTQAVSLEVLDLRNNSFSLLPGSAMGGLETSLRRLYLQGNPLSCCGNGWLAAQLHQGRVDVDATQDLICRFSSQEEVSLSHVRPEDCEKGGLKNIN
T6 sequence (P01137 30-390 limits assumed, chain 2 of 2): as the sequence (P01137 30-390 limits assumed, one chain of several) above
T2 sequence (Q86YC3 19-650 limits assumed, chain 1 of 2): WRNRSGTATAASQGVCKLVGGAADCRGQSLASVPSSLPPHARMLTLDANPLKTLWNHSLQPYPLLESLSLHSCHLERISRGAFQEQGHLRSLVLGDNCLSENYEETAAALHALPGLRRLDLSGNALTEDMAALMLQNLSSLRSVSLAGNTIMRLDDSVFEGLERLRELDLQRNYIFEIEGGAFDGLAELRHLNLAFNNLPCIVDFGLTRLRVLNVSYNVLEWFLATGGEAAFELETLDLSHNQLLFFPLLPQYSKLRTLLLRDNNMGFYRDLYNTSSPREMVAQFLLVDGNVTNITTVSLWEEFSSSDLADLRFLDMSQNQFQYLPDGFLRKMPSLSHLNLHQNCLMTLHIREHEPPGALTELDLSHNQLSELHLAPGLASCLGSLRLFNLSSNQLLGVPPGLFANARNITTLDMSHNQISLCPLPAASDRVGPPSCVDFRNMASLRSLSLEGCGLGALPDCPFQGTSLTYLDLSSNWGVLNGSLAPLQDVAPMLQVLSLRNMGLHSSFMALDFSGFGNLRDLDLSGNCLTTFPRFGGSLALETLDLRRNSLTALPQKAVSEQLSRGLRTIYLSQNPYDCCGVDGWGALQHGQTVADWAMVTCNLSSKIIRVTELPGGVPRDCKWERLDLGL
T2 sequence (P01137 30-390 limits assumed, chain 2 of 2): as the sequence (P01137 30-390 limits assumed, one chain of several) above
T8 sequence (P01137 30-390): as the sequence (P01137 30-390 limits assumed, one chain of several) above

B1: SR-AB23 (antibody, IgG1, V domains shown)
VH: QVQLVESGGGVVQPGRSLRLSCAASGFTFRSYVMHWVRQAPGKGLEWVAVISHEGSLKYYADSVKGRFTISRDNSKNTLYLQMNSLRAEDTAVYYCARPRIAARRGGFGYWGQGTLVTVSS
VL: NFMLTQPHSVSESPGKTVTISCTRSSGNIDNNYVQWYQQRPGSSPTTVIYEDNQRPSGVPDRFSGSIDSSSNSASLTISGLKTEDEADYYCQSYDSDNQGVVFGGGTKLTVL
notes: Cycle 2, lineage SR-AB14
With B1, the “IC50, endogenous hLTBP assay (CAGA12 luciferase)” value in experiment [1] was found to be 6.04 nM. In [2], the “IC50, mLTBP1 assay (CAGA12 luciferase)” value is 0.946 nM. The binding result is listed as “no binding” in [3] and “no binding (tested: 200 nM)” in experiment [8]. Moreover, the Kd turned out to be 5.98 nM in experiment [4], 1.26 nM in [5], 8.38 nM in experiment [6] and 7.93 nM in experiment [7].

B2: SR-AB2 (antibody, V domains shown)
VH: QVQLVQSGAEVKKPGASVKVSCKASGYTFTSYGISWVRQAPGQGLEWMGWISAYNGNTNYAQKLQGRVTMTTDTSTSTAYMELRSLRSDDTAVYYCARAPLGNFDSWGQGTMVTVSS
VL: NFMLTQPHSVSESPGKTVTISCTRSSGSIASNYVQWYQQRPGSSPTTVIYEDNQRPSGVPDRFSGSIDSSSNSASLTISGLKTEDEADYYCQSYDSSNHPVVFGGGTKLTVL
For B2, the binding result in the experiment with mature TGFβ1 is “no binding”; in the experiment with proTGFβ1 alone, “no binding”; with LTBP1 alone, “no binding”; in [13] it was “no binding (tested: 100 nM)”; in experiment [14] it was “no binding (tested: 100 nM)”. For the same molecule, the normalized response is 1.11 fraction of uninhibited binding in experiment [9], 0.47 fraction of uninhibited binding in experiment [10], 1.54 fraction of uninhibited binding in experiment [11] and 1.31 fraction of uninhibited binding in experiment [12]. For the same molecule, the Kd with Rat LTBP1-proTGFβ1 was found to be 174 nM; in [15], 188 nM; in [16], 204 nM; in experiment [17], 118 nM; in [18] it was 245 nM. Moreover, the results for the kobs (with Rat LTBP1-proTGFβ1; in experiment [15]; in experiment [16]) were 0.0176 s⁻¹, 0.0142 s⁻¹ and 0.0134 s⁻¹, respectively. Moreover, the koff with Rat LTBP1-proTGFβ1 was found to be 0.00582 s⁻¹; in experiment [15], 0.00502 s⁻¹; in experiment [16] it was 0.00517 s⁻¹. The kon with Rat LTBP1-proTGFβ1 turned out to be 41900 M⁻¹ s⁻¹; in experiment [15] it was 28400 M⁻¹ s⁻¹; in experiment [16] it was 26600 M⁻¹ s⁻¹.
